Assay results taken from patent US20040096444A1 (DUKE UNIVERSITY, published 2004).

Molecular target: T1, VDAC1 on the surface of human umbilical vein endothelial cells (HUVEC) (human, UniProt P21796 2-283)
T1 construct: Endogenous protein on primary HUVEC; The assays were done on whole cells; also called K5 receptor on HUVEC; plasma membrane VDAC1
Assay: 125I-K5 saturation binding to HUVEC monolayers at 4 C, fit to the Langmuir isotherm
Method: Ligand binding analysis. Cells were grown in tissue culture plates until the monolayers were confluent. The cells were washed in HBSS. […] Wells were stripped from the plates and radioactivity was determined. Molecules of ligand bound were calculated after substraction of nonspecific binding measured in the presence of 50 mM p-amino-benzamidine.

T1 sequence (P21796 2-283): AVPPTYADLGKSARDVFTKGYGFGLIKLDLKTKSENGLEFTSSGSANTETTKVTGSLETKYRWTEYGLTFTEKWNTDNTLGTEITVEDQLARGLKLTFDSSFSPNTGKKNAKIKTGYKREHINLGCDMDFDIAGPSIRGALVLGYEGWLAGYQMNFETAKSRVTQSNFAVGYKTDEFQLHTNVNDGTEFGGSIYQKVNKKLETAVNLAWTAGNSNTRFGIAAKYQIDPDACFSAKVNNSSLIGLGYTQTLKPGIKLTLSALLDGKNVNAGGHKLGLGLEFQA

B1: plasminogen kringle 5 (K5), purified from pepsin digestion of human mini-Pg (ligand, UniProt P00747 481-560, looked up)
chain: CMFGNGKGYRGKRATTVTGTPCQDWAAQEPHRHSIFTPETNPRAGLEKNYCRNPDGDVGGPWCYTTNPRKLYDYCDVPQC
modifications: 125I-labeled Bolton Hunter reagent (labelled form used in the binding assays)
notes: domain: kringle 5; Proteolytic fragment (elastase, then pepsin) of purified human Pg 2; also called Pg kringle 5; angiostatin kringle-5
  Kd: 28 nM
